Measurements published in paper PMC5748972 (The Journal of Cell Biology, 2018).
Blank lines part the entries; values can stand above or below the molecule they belong to.

Tests used:
[1] = target: intact α4β1 on Jurkat cells (Homo sapiens, UniProt P05556+P13612); assay: Fluorescent flow cytometry saturation binding of FITC-LDVP, Jurkat; details: basal
[2] = target: intact α4β1 on Thp1 cells (Homo sapiens, UniProt P05556+P13612); assay: Fluorescent flow cytometry saturation binding of FITC-LDVP, Thp1; details: basal
intact α4β1 on KA4 cells = intact α4β1 on KA4 cells (Homo sapiens, UniProt P05556+P13612); assay: Fluorescent flow cytometry saturation binding of FITC-LDVP, KA4; details: basal
integrin α4β1 = integrin α4β1 (Homo sapiens, UniProt P05556+P13612); assay: Summary statements across α4β1 preparations and cell types; type: binding; details: Jurkat, Thp1, KA4 cell surface
[3] = target: FITC-conjugated 4-((N′-2-methylphenyl)ureido)-phenylacetyl-L-leucyl-L-aspartyl-L-valyl-L-prolyl-L-al; assay: fluorescence polarisation
[4] = target: intact integrin α4β1 on the surface of Jurkat cells (human (endogenous in Jurkat)) (UniProt P13612); assay: flow cytometry on cells
[5] = target: intact integrin α4β1 on the surface of Jurkat cells (human (endogenous in Jurkat), UniProt P13612;P05556); assay: flow cytometry on cells

- P^EO [1]: 1.1 ± 0.2%
- P^EO [2]: 0.4 ± 0.1%
- P^EO (intact α4β1 on KA4 cells): 1.4 ± 0.3%
- free energy of the BC state, range on three cell types (integrin α4β1): -13.4 to -10.5 kJ/mol
Molecule: α4β1: integrin α4β1; intact receptor on the cell surface

- Kd [3]: 0.0052 µM
Molecule: integrin α4β1 headpiece with high-mannose N-glycans (from UniProt P05556 21-501) (complex)

- Kd [4]: 13.9 µM
Molecule: human MAdCAM D1D2 (mucosal addressin cell adhesion molecule, domains 1 and 2) (domain or fragment)

- Kd [5]: 1 ± 0.19 µM
B1: alternatively spliced connecting segment III of human fibronectin (domain or fragment)
chain: DELPQLVTLPHPNLHGPEILDVPSTVQKTPFVTHPGYDTGNGIQLPGTSGQQPSVGQQMIFEEHGFRRTTPPTTATPIRHRPRPYPPNVGEEIQIGHIPREDVDYHLYPHG
